From publication PMC10696041 (2023) come the findings set out here.

In assay [1] the target is T1, procollagen C-proteinase enhancer-2 with N-terminal 6His-tag (human, UniProt Q9UKZ9 24-415).
T1 chain: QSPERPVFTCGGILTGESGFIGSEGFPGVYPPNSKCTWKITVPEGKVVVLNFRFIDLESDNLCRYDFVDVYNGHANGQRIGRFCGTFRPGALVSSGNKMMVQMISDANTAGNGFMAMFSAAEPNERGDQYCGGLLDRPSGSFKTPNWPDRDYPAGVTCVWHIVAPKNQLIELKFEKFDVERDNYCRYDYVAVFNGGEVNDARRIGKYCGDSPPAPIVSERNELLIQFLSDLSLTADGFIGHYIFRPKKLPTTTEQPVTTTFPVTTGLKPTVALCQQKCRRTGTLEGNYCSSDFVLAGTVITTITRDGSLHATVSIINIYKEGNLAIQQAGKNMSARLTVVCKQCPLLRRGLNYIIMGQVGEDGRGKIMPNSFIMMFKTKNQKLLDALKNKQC
As to the kind of experiment: SPR; steady-state fit.

Assay [2] addresses T1, procollagen C-proteinase enhancer-2 …. As to the kind of experiment: SPR; heterogeneous ligand model, KD1 (Rmax1 42%).
Assay [3] shares this target. As to the kind of experiment: SPR; heterogeneous ligand model, kd1.
Assay [4] shares this target. As to the kind of experiment: SPR; heterogeneous ligand model, second site KD2 (Rmax2 58%).
The target is the same in assay [5]. As to the kind of experiment: SPR; heterogeneous ligand model, second site kd2.
Assay [6] concerns the target T2, bone morphogenetic protein-1 (human, UniProt P13497-2 121-730).
T2 chain: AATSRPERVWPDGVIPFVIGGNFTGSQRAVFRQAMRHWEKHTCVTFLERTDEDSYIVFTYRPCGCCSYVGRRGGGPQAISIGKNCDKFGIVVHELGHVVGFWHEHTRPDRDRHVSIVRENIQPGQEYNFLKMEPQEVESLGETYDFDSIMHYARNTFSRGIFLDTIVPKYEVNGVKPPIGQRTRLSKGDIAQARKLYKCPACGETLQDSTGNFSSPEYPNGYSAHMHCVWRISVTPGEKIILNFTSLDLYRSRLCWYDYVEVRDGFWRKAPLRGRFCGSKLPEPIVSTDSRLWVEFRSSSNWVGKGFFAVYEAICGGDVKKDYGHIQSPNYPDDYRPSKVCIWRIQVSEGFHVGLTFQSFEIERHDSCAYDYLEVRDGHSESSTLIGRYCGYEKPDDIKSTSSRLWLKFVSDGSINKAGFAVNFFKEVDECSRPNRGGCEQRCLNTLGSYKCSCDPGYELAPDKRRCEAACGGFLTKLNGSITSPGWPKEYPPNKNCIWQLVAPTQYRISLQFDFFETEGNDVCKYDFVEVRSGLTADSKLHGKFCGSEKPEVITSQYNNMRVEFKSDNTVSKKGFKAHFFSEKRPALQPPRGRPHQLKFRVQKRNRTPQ
As to the kind of experiment: SPR; steady-state fit.

The target of assay [7] is T2, bone morphogenetic protein-1. As to the kind of experiment: SPR; heterogeneous ligand model, kd1.
Assay [8] shares this target. As to the kind of experiment: SPR; heterogeneous ligand model, second site KD2 (Rmax2 86%).
Assay [9] shares this target. As to the kind of experiment: SPR; heterogeneous ligand model, KD1 (Rmax1 14%).
For assay [10] the target is unchanged. As to the kind of experiment: SPR; heterogeneous ligand model, second site kd2.

B1: BMP-1[catCUB1CUB2] (domain or fragment)
chain: AATSRPERVWPDGVIPFVIGGNFTGSQRAVFRQAMRHWEKHTCVTFLERTDEDSYIVFTYRPCGCCSYVGRRGGGPQAISIGKNCDKFGIVVHELGHVVGFWHEHTRPDRDRHVSIVRENIQPGQEYNFLKMEPQEVESLGETYDFDSIMHYARNTFSRGIFLDTIVPKYEVNGVKPPIGQRTRLSKGDIAQARKLYKCPACGETLQDSTGNFSSPEYPNGYSAHMHCVWRISVTPGEKIILNFTSLDLYRSRLCWYDYVEVRDGFWRKAPLRGRFCGSKLPEPIVSTDSRLWVEFRSSSNWVGKGFFAVYEAICGGDVKKDYGHIQSPNYPDDYRPSKVCIWRIQVSEGFHVGLTFQSFEIERHDSCAYDYLEVRDGHSESSTLIGRYCGYEKPDDIKSTSSRLWLKFVSDGSINKAGFAVNFFK
Take B1: the Kd was 24 nM in assay [1], 1.84 nM in [2] and 66 nM in assay [4]. The values for the off-rate constant (koff) in [3] and in assay [5] were 0.0024 s⁻¹ and 0.03 s⁻¹, respectively.

B2: CUB2NTR region of PCPE-2 (domain or fragment)
chain: CGGLLDRPSGSFKTPNWPDRDYPAGVTCVWHIVAPKNQLIELKFEKFDVERDNYCRYDYVAVFNGGEVNDARRIGKYCGDSPPAPIVSERNELLIQFLSDLSLTADGFIGHYIFRPKKLPTTTEQPVTTTFPVTTGLKPTVALCQQKCRRTGTLEGNYCSSDFVLAGTVITTITRDGSLHATVSIINIYKEGNLAIQQAGKNMSARLTVVCKQCPLLRRGLNYIIMGQVGEDGRGKIMPNSFIMMFKTKNQKLLDALKNKQC
As to B2, the Kd in [6] came out at 52 nM; in [8] it was 26.6 nM; in assay [9], 6.29 nM. In addition, the values for the koff in [7] and in [10] were 0.005 s⁻¹ and 0.198 s⁻¹, respectively.
